Data reported in patent US20240173421A1 (Seagen, published 2024).
Like-named read-outs stand apart in the source and are kept apart here.

Legend:
[1] = biological target: T1, CD16a (FcγRIIIa) on Jurkat NFAT reporter cells (UniProt P08637 17-254, limits assumed); assay: cell-based or functional assay
[2] = biological target: FcgRIa (NFAT activity assay) (UniProt P12314 16-374); assay: cell-based or functional assay
[3] = biological target: T2, FcgRIIa (NFAT activity assay) (UniProt P12318 34-317); assay: cell-based or functional assay
T2 sequence (looked up): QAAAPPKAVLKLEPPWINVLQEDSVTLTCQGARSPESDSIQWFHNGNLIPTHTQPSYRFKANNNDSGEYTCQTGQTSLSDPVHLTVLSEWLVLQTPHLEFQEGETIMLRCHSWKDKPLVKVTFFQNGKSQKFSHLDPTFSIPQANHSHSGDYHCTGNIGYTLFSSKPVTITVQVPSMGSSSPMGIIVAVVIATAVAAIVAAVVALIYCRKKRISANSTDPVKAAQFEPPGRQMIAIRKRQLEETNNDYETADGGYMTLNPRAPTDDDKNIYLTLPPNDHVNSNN

[4] = biological target: T1, CD16a (FcγRIIIa) on Jurkat NFAT …; assay: cell-based or functional assay; remark: listed apart in the source
[5] = biological target: T1, CD16a (FcγRIIIa) on Jurkat NFAT …; assay: cell-based or functional assay; remark: listed apart in the source
[6] = biological target: T1, CD16a (FcγRIIIa) on Jurkat NFAT …; assay: cell-based or functional assay; remark: listed apart in the source
[7] = biological target: T1, CD16a (FcγRIIIa) on Jurkat NFAT …; assay: cell-based or functional assay; remark: listed apart in the source
[8] = biological target: T1, CD16a (FcγRIIIa) on Jurkat NFAT …; assay: cell-based or functional assay; remark: listed apart in the source
FcgRIIb = biological target: T3, FcgRIIb (human, UniProt P31994 43-217, biotinylated); assay: BLI, FcγR-monomeric Fc fusion on streptavidin sensor
T3 sequence (looked up): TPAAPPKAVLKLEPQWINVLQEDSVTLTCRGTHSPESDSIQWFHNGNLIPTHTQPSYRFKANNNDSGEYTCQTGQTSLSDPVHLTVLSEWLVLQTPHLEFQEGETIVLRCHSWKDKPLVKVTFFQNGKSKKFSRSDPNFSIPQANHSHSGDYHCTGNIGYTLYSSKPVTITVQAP

[9] = biological target: T1, CD16a (FcγRIIIa) on Jurkat NFAT …; assay: cell-based or functional assay; remark: listed apart in the source

T1 sequence (P08637 17-254 limits assumed): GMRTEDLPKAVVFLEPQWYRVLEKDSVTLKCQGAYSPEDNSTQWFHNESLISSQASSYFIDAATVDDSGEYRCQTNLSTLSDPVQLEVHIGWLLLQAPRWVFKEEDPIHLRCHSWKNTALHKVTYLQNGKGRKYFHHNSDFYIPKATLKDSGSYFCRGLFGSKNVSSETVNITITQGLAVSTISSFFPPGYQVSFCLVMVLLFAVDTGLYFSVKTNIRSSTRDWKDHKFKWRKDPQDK
Chain of FcgRIa (NFAT activity assay) (P12314 16-374): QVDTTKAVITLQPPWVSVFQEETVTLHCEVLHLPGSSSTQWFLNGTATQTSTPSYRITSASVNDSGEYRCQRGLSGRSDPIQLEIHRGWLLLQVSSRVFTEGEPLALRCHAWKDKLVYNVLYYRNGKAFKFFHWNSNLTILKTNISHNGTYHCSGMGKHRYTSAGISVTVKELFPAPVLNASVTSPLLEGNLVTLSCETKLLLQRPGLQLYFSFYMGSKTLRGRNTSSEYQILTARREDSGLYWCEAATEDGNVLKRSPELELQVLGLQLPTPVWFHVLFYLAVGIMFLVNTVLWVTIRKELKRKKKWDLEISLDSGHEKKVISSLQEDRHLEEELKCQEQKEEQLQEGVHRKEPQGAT

B1: Anti-CD40-WT (antibody, human IgG1, kappa)
heavy: not shown
light: DIQMTQSPSSLSASVGDRVTITCRSSQSLVHSNGNTFLHWYQQKPGKAPKLLIYTVSNRFSGVPSRFSGSGSGTDFTLTISSLQPEDFATYFCSQTTHVPWTFGQGTKVEIKRTVAAPSVFIFPPSDEQLKSGTASVVCLLNNFYPREAKVQWKVDNALQSGNSQESVTEQDSKDSTYSLSSTLTLSKADYEKHKVYACEVTHQGLSSPVTKSFNRGEC
For B1, the “EC50, NFAT activity assay” value [1] was 0.16 µg/mL, the “EC50, NFAT activity assay” value [2] was 0.09 µg/mL and the “EC50, NFAT activity assay” value [3] was 0.08 µg/mL.

B2: Anti-CD40-AF (afucosylated) (antibody, human IgG1, kappa)
heavy: not shown
light: DIQMTQSPSSLSASVGDRVTITCRSSQSLVHSNGNTFLHWYQQKPGKAPKLLIYTVSNRFSGVPSRFSGSGSGTDFTLTISSLQPEDFATYFCSQTTHVPWTFGQGTKVEIKRTVAAPSVFIFPPSDEQLKSGTASVVCLLNNFYPREAKVQWKVDNALQSGNSQESVTEQDSKDSTYSLSSTLTLSKADYEKHKVYACEVTHQGLSSPVTKSFNRGEC
In the case of B2, the “EC50 (read off the curve), CD16a NFAT reporter assay” value [4] is reported as roughly 0.003 µg/mL, the “EC50 (read off the curve), FcγRIIIa NFAT reporter assay” value (“EC50 … FcγRIIIa NFAT reporter assay” below) [5] is reported as roughly 0.01 µg/mL and the “EC50, NFAT activity assay” value [1] is reported as 0.05 µg/mL. The “EC50, NFAT activity assay” value [2] was 0.07 µg/mL, the “EC50, NFAT activity assay” value [3] was 0.09 µg/mL and the “EC50 … FcγRIIIa NFAT reporter assay” value [6] was roughly 0.01 µg/mL. For the same binder, the “EC50 … FcγRIIIa NFAT reporter assay” value [7] was roughly 0.001 µg/mL and the “EC50 … FcγRIIIa NFAT reporter assay” value [8] was roughly 0.001 µg/mL.

B3: Anti-CD40-AF-10 (antibody, human IgG1, kappa)
heavy: not shown
light: DIQMTQSPSSLSASVGDRVTITCRSSQSLVHSNGNTFLHWYQQKPGKAPKLLIYTVSNRFSGVPSRFSGSGSGTDFTLTISSLQPEDFATYFCSQTTHVPWTFGQGTKVEIKRTVAAPSVFIFPPSDEQLKSGTASVVCLLNNFYPREAKVQWKVDNALQSGNSQESVTEQDSKDSTYSLSSTLTLSKADYEKHKVYACEVTHQGLSSPVTKSFNRGEC
modifications: reduced interchain-disulfide cysteine carries compound 10; afucosylated N-glycan; reduced interchain-disulfide cysteines carry compound 10 (maleimidopropionyl-PEG48)
In the case of B3, the “EC50, NFAT activity assay” value [1] is reported as 2.09 µg/mL, the “EC50, NFAT activity assay” value [2] is reported as 3.73 µg/mL and the “EC50, NFAT activity assay” value [3] is reported as 227 µg/mL.

B4: Anti-CD40-AF-1(6) (antibody, human IgG1, kappa)
heavy: not shown
light: DIQMTQSPSSLSASVGDRVTITCRSSQSLVHSNGNTFLHWYQQKPGKAPKLLIYTVSNRFSGVPSRFSGSGSGTDFTLTISSLQPEDFATYFCSQTTHVPWTFGQGTKVEIKRTVAAPSVFIFPPSDEQLKSGTASVVCLLNNFYPREAKVQWKVDNALQSGNSQESVTEQDSKDSTYSLSSTLTLSKADYEKHKVYACEVTHQGLSSPVTKSFNRGEC
modifications: afucosylated N-glycan; compound 1 (disulfide-PEG12) on reduced interchain-disulfide cysteines, 6 per antibody, sites not stated
notes: 6 BPM per antibody; also called Anti-CD40-AF-1 6-load
B4 was tested, and the Kd (FcgRIIb) was 25 µM.

B5: Anti-CD40-AF-12 with 2 load (antibody, human IgG1, kappa)
heavy: not shown
light: DIQMTQSPSSLSASVGDRVTITCRSSQSLVHSNGNTFLHWYQQKPGKAPKLLIYTVSNRFSGVPSRFSGSGSGTDFTLTISSLQPEDFATYFCSQTTHVPWTFGQGTKVEIKRTVAAPSVFIFPPSDEQLKSGTASVVCLLNNFYPREAKVQWKVDNALQSGNSQESVTEQDSKDSTYSLSSTLTLSKADYEKHKVYACEVTHQGLSSPVTKSFNRGEC
modifications: afucosylated N-glycan; compound 12 (maleimidocaproyl-PEG12) on reduced interchain-disulfide cysteines, 2 per antibody, sites not stated
For B5, the “EC50 … FcγRIIIa NFAT reporter assay” value [6] was roughly 0.001 µg/mL.

B6: Anti-CD40-AF-17 (antibody, human IgG1, kappa)
heavy: not shown
light: DIQMTQSPSSLSASVGDRVTITCRSSQSLVHSNGNTFLHWYQQKPGKAPKLLIYTVSNRFSGVPSRFSGSGSGTDFTLTISSLQPEDFATYFCSQTTHVPWTFGQGTKVEIKRTVAAPSVFIFPPSDEQLKSGTASVVCLLNNFYPREAKVQWKVDNALQSGNSQESVTEQDSKDSTYSLSSTLTLSKADYEKHKVYACEVTHQGLSSPVTKSFNRGEC
modifications: reduced interchain-disulfide cysteine carries compound 17; afucosylated N-glycan; reduced interchain-disulfide cysteines carry compound 17 (maleimidocaproyl-(PEG4)2)
In the case of B6, the “EC50 … FcγRIIIa NFAT reporter assay” value [7] is reported as roughly 0.007 µg/mL.

B7: Anti-CD40-AF-1(8) (antibody)
heavy: not shown
light: DIQMTQSPSSLSASVGDRVTITCRSSQSLVHSNGNTFLHWYQQKPGKAPKLLIYTVSNRFSGVPSRFSGSGSGTDFTLTISSLQPEDFATYFCSQTTHVPWTFGQGTKVEIKRTVAAPSVFIFPPSDEQLKSGTASVVCLLNNFYPREAKVQWKVDNALQSGNSQESVTEQDSKDSTYSLSSTLTLSKADYEKHKVYACEVTHQGLSSPVTKSFNRGEC
modifications: reduced interchain-disulfide cysteine carries compound 1; afucosylated N-glycan; reduced interchain-disulfide cysteines carry compound 1 (disulfide-PEG12)
In the case of B7, the “EC50 … FcγRIIIa NFAT reporter assay” value [9] is reported as roughly 0.007 µg/mL.

B8: Anti-CD40-AF-1(4) (antibody, human IgG1, kappa)
heavy: not shown
light: DIQMTQSPSSLSASVGDRVTITCRSSQSLVHSNGNTFLHWYQQKPGKAPKLLIYTVSNRFSGVPSRFSGSGSGTDFTLTISSLQPEDFATYFCSQTTHVPWTFGQGTKVEIKRTVAAPSVFIFPPSDEQLKSGTASVVCLLNNFYPREAKVQWKVDNALQSGNSQESVTEQDSKDSTYSLSSTLTLSKADYEKHKVYACEVTHQGLSSPVTKSFNRGEC
modifications: afucosylated N-glycan; compound 1 (disulfide-PEG12) on reduced interchain-disulfide cysteines, 4 per antibody, sites not stated
notes: 4 BPM per antibody; also called Anti-CD40-AF-1 4-load
With B8 the Kd (FcgRIIb) was 22 µM.

B9: Anti-CD40-AF-1(2) (antibody, human IgG1, kappa)
heavy: not shown
light: DIQMTQSPSSLSASVGDRVTITCRSSQSLVHSNGNTFLHWYQQKPGKAPKLLIYTVSNRFSGVPSRFSGSGSGTDFTLTISSLQPEDFATYFCSQTTHVPWTFGQGTKVEIKRTVAAPSVFIFPPSDEQLKSGTASVVCLLNNFYPREAKVQWKVDNALQSGNSQESVTEQDSKDSTYSLSSTLTLSKADYEKHKVYACEVTHQGLSSPVTKSFNRGEC
modifications: afucosylated N-glycan; compound 1 (disulfide-PEG12) on reduced interchain-disulfide cysteines, 2 per antibody, sites not stated
notes: 2 BPM per antibody; also called Anti-CD40-AF-1 2-load
With B9 the “EC50 … FcγRIIIa NFAT reporter assay” value [5] was roughly 0.003 µg/mL and the Kd (FcgRIIb) was 21 µM.

B10: Anti-CD40-AF-12 with 4 load (antibody, human IgG1, kappa)
heavy: not shown
light: DIQMTQSPSSLSASVGDRVTITCRSSQSLVHSNGNTFLHWYQQKPGKAPKLLIYTVSNRFSGVPSRFSGSGSGTDFTLTISSLQPEDFATYFCSQTTHVPWTFGQGTKVEIKRTVAAPSVFIFPPSDEQLKSGTASVVCLLNNFYPREAKVQWKVDNALQSGNSQESVTEQDSKDSTYSLSSTLTLSKADYEKHKVYACEVTHQGLSSPVTKSFNRGEC
modifications: afucosylated N-glycan; compound 12 (maleimidocaproyl-PEG12) on reduced interchain-disulfide cysteines, 4 per antibody, sites not stated
With B10 the “EC50 … FcγRIIIa NFAT reporter assay” value [6] was roughly 0.002 µg/mL.

B11: Anti-CD40-AF-9(8) (antibody, human IgG1, kappa)
heavy: not shown
light: DIQMTQSPSSLSASVGDRVTITCRSSQSLVHSNGNTFLHWYQQKPGKAPKLLIYTVSNRFSGVPSRFSGSGSGTDFTLTISSLQPEDFATYFCSQTTHVPWTFGQGTKVEIKRTVAAPSVFIFPPSDEQLKSGTASVVCLLNNFYPREAKVQWKVDNALQSGNSQESVTEQDSKDSTYSLSSTLTLSKADYEKHKVYACEVTHQGLSSPVTKSFNRGEC
modifications: reduced interchain-disulfide cysteine carries compound 9; afucosylated N-glycan; reduced interchain-disulfide cysteines carry compound 9 (maleimidopropionyl-PEG12)
With B11 the “EC50, NFAT activity assay” value [1] was 0.22 µg/mL, the “EC50, NFAT activity assay” value [2] was 0.35 µg/mL and the “EC50, NFAT activity assay” value [3] was 14.3 µg/mL.
